These results are taken from patent US7230094B2, “Neutral sphingomyelinase antisense ribozyme and uses thereof” (priority 2001, dated 2007).

The test system of this series is caspase-3 and cytochrome-C release. Description: Caspase-3 and cytochrome-C release by western analysis and densitometry. Type of series: cell-based, human. The note with it: N-SMase-deficient cells compared to control (sham-transfected) cells. As for the experimental part: In order to determine a dose-response relationship between the concentration of TNF-α or FasL and apoptosis, western analysis was used to quantitate release of both caspase-3 (FIG. 9) and cytochrome-C (FIG. 10).
Immunoblots for the measurement of cytochrome-C and caspase-3 were carried out after incubation of cells with TNF-α (10 ng/ml) or FasL (1 ng/ml) for 48 hours. Cells were extracted with a buffer (20 mM Hepes pH 7.5, 10 mM KCl, 1.5 mM MgCl2, 5 mM EDTA, 5 mM DTT, 2 mM phenylmethylsulfonylfluoride, 1% NonidetP40, 0.5% sodium deoxycholate, 0.1% SDS, 2 μg/ml leupeptin, 2 μg/ml aprotinin, 0.5 μg/ml benzamindine, and 250 mM sucrose) on ice for 30 minutes. After centrifugation for 10 minutes at 10,000×g, the supernatant was used for western analysis with an antibody for cytochrome-C (Pharmingen, San Diego, Calif.). For assessment of caspase-3, samples were similarly processed in addition to passage through a 21-g needle prior to centrifugation. The western analysis was performed with a rabbit polyclonal IgG antibody to caspase-3 (Santa Cruz, Calif.) raises against an epitope corresponding to amino acids 1–277, representing the full-length precursor form of CPP-32 (caspase-3). For both caspase-3 and cytochrome-C, bands were quantified with densitometric analysis.

B1: N-SMase ribozyme: U1 snRNA-derived hammerhead antisense ribozyme targeting N-SMase mRNA, expressed from vector pNSMRz; stably transfected MG63 clones CC and C-B (nucleic acid, listed as Homo sapiens)
chain: AUACUUACCUGGCAGGGGAGAUACCAUGAUCACGAAGGUGGUUUUCCCAGGGCGAGGCUUAUCCAUUGGCCUCCGGAUGUGCUGACCCCUGCGAUUUCCCCAAAUGUGGGAAACUCGACUGCAGAAUAUGUCAUCAUAUUGCCUGAUGAGUCCGUGAGGACGAAACCUCUUCACAUGAAAAAGUGGGGCUGCGUUCGCGCUUCCCCG
Turning to B1, the “Dose-response of caspase-3 and cytochrome-C release to TNF-α and FasL” value is reported as “marked blunting of the response”.
